The values that follow come from patent publication US5747453.

This test deals with PTH receptor (rat) (UniProt P25961).
Sequence of PTH receptor (rat) (P25961 27-591): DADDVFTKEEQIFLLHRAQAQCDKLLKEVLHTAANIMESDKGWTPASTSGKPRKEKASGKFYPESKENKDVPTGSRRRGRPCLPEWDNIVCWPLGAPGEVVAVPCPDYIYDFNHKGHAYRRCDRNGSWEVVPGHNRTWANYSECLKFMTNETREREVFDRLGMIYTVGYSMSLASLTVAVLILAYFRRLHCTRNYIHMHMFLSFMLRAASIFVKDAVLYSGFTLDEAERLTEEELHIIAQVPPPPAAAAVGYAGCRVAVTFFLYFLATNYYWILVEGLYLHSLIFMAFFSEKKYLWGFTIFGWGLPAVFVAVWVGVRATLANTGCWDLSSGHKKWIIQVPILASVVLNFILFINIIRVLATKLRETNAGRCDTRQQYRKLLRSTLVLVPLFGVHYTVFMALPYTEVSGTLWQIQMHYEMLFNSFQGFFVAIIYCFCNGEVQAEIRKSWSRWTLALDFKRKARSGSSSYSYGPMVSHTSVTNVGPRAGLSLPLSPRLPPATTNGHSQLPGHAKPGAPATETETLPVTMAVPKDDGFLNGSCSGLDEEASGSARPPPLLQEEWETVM

Sequence of PTH analog 1 (1-35) (ligand) (peptide): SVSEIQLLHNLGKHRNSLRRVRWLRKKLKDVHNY

Regarding PTH analog 1 (1-35) (ligand), the cAMP concentration (adenylate cyclase stimulation) in UMR106 cells, scintillation proximity assay stood at 0.9 nM.

For the substance “Synthetic PTH having the wild-type sequence (ligand)”, the cAMP concentration (adenylate cyclase stimulation) in UMR106 cells, scintillation proximity assay was 4.4 nM.
